Results published in patent US9060960B2, “Treatment of dissection, aneurysm, and atherosclerosis using granzyme B inhibitors” (The University of British Columbia, priority 2007, dated 2015).
Where “and” joins values, the source holds several entries; their conditions need not be identical. Equal entries are not always repeated.

Legend:
[1] = test system: skin elastin (3H-elastin); assay: 3H-elastin cleavage assay (skin elastin); type: biochemical
Description: (§1) FIG. 6 Granzyme B degrades elastin in vitro. Granzyme B was incubated with ^3H-elastin for 7 days at room temperature. Elastase was incubated with ^3H-elastin for 2 hours. Supernatants containing the soluble elastin cleavage fragments were collected and counted. Data is represented as fold increase in radioactivity over the control (elastin only). (n=2).
(§2) Tritiated elastin was prepared with the modifications as described in Banda, M. J. and Werb, Z. (1981) Biochem, J. 193: 589-605 and Gordon, S., Werb, Z. and Cohn, Z. A. (1976) in In Vitro Methods in Cell Mediated and Tumor Immunity, eds. Bloom, B. R. and David, J. R. (Academic Press, New York), pages 349-350. 1 mg of skin or aortic elastin was diluted in 1 ml dH2O and pHed to 9.2. 1 mCi NaB3H4 (PerkinElmer™, Waltham Mass.) and 2 mg of […] (Sigma™, St. Louis, Mo.) was added. After 2 hours of incubation, the pH was adjusted to 3.0 and the elastin was incubated for an additional 30 minutes. The elastin was centrifuged for 3 minutes at 5000×g and the pellet was repeatedly washed to remove excess NaB3H4. […] The radioactivity of the soluble, cleaved elastin fragments in the supernatant was counted in Ready Safe Scintillation Fluid (Beckman-Coulter™, Fullerton, Calif.). The radioactivity of the cleaved, soluble elastin fragments was 4.8 times and 2.7 times higher than background for skin and aortic elastin, respectively (FIG. 6).

[2] = test system: aortic elastin (3H-elastin); assay: 3H-elastin cleavage assay (aortic elastin); type: biochemical
Description: as §1, §2

[3] = test system: human insoluble skin (Sk) elastin; assay: in vitro granzyme B elastin binding assay (skin elastin); details: 50, 100, 300 ng granzyme B; 15 μg skin elastin; PBS, 3 hours, room temperature
Description: (§3) An in vitro granzyme B elastin binding assay was conducted in the following manner. Granzyme B at 50, 100 and 300 ng was incubated with 15 μg of human insoluble skin (Sk) and aortic (Ao) elastin (Elastin Products Company™, Owensville, Mo.) in PBS for three hours at room temperature. The samples were centrifuged at 1000×g at room temperature for three minutes and the insoluble elastin collected in the pellet. The supernatants, which contained unbound granzyme B, were denatured with SDS loading buffer and run on a 10% SDS-PAGE gel. Granzyme B was detected by Western blot. Each gel contained three lanes: a first lane related to a sample containing granzyme B in the absence of elastin; a second lane related to the samples containing granzyme B and human insoluble skin elastin; and a third lane related to the sample containing granzyme B and aortic elastin. […] This phenomenon was dose-dependent and not restricted to the type of elastin used (i.e. skin elastin or aortic elastin).

[4] = test system: human insoluble aortic (Ao) elastin; assay: in vitro granzyme B elastin binding assay (aortic elastin); details: 50, 100, 300 ng granzyme B; 15 μg aortic elastin; PBS, 3 hours, room temperature
Description: as §3

fibronectin = target: T1, fibronectin (Homo sapiens, UniProt P02751); assay: Western blot for fibronectin on granzyme B-treated SMCs; type: biochemical; details: SMCs treated with granzyme B for 24 hours
T1 construct: endogenous in cells; host or cells: human coronary artery smooth muscle cells
Description: (§4) Extracellular proteins from SMC cultures were biotinylated and incubated with granzyme B. The supernatant was collected at 2, 4 and 24 hours after treatment, and the entire insoluble extracellular protein preparation collected at 24 hours. Extracellular proteins were visualized by Western blot for biotin. Western blot for beta-actin confirmed that the extracellular protein preparation was devoid of intercellular proteins. Western blots for fibronectin, phosphorylated FAK (p-FAK), and FAK were also performed on lysates of SMC treated with granzyme B. In the collected insoluble proteins, four protein bands between approximately 50-70 kDa and approximately 236 kDa disappeared 24 hours after treatment with granzyme B and cleavage of fragments approximately 25-39 kDa were evident in the matrix at this same time point. Further, the six proteins and/or cleavage fragments ranging in molecular weight from approximately 29-148 kDa were eluted into the supernatant as early as two hours after granzyme B treatment. […]
(§5) To identify extracellular proteins that are cleaved by granzyme B, western blots for fibronectin, collagen, and vitronectin on lysates from untreated and granzyme B-treated SMCs were performed. […] In the supernatants of granzyme B-treated SMCs at 24 hours, a fibronectin cleavage product was detected. […]

collagen IV = assay: Western blot for collagen on granzyme B-treated SMCs; type: biochemical, human; details: SMCs treated with granzyme B for 24 hours
Description: as §4, §5

vitronectin = assay: Western blot for vitronectin on granzyme B-treated SMCs; type: biochemical, human; details: SMCs treated with granzyme B for 24 hours
Description: as §4, §5

fibrillin-1 = target: T2, fibrillin-1 (Homo sapiens, UniProt P35555); assay: Fibrillin cleavage on SMC extracellular matrix by Western blot; type: biochemical; details: Granzyme B (80 nm) on ECM, 24 hours, room temperature
T2 construct: cells were lysed with NH4OH so that the intact extracellular matrix (ECM) remained on the plate; endogenous in cells; host or cells: human coronary artery smooth muscle cells (decellularised ECM)
Description: Human coronary artery smooth muscle cells were cultured to confluency and serum starved for 48 hours at which time cells were lysed with NH4OH so that the intact extracellular matrix (ECM) remained on the plate. Granzyme B (80 nm) was incubated on the ECM for 24 hours at room temperature. Supernatants (containing cleaved ECM) and ECM still attached to the plate were collected and assessed for fibrillin cleavage by Western blot. The arrows in FIG. 7 indicate fibrillin-1 cleavage fragments.

[5] = test system: human coronary artery smooth muscle cells (SMC) matrix; assay: Cleavage of biotinylated SMC extracellular proteins; type: biochemical; details: supernatant at 2, 4, 24 hours; insoluble matrix at 24 hours
Description: Extracellular proteins from SMC cultures were biotinylated and incubated with granzyme B. The supernatant was collected at 2, 4 and 24 hours after treatment, and the entire insoluble extracellular protein preparation collected at 24 hours. Extracellular proteins were visualized by Western blot for biotin. Western blot for beta-actin confirmed that the extracellular protein preparation was devoid of intercellular proteins. Western blots for fibronectin, phosphorylated FAK (p-FAK), and FAK were also performed on lysates of SMC treated with granzyme B. In the collected insoluble proteins, four protein bands between approximately 50-70 kDa and approximately 236 kDa disappeared 24 hours after treatment with granzyme B and cleavage of fragments approximately 25-39 kDa were evident in the matrix at this same time point. Further, the six proteins and/or cleavage fragments ranging in molecular weight from approximately 29-148 kDa were eluted into the supernatant as early as two hours after granzyme B treatment. To ensure that the SMC extracellular protein preparations used were devoid of intracellular proteins, Western blotting for beta-actin was performed on the collected supernatant and extracellular proteins. Beta-actin was apparent in SMC lysates (positive control) but was absent from matrix and supernatant preparations.

[6] = test system: C57, apoE-KO and GrB/apoE-DKO mice; assay: Angiotensin-II infusion aortic dissection model (Example 7); type: in vivo, mouse
Description: Aortic dissections were induced with 28 day infusion of 2000 ng/kg/min angiotensin-II dissolved in saline, or placebo, through an ALZET™ osmotic pump (model 1004). The pumps were implanted into the subcutaneous space in the upper dorsal regions through a small incision site at the back of the neck of the anesthetized mouse, and the incision was closed with dissolving sutures. The mice were euthanized by carbon dioxide inhalation followed by cardiac puncture 28-days post implantation. The thoracic cavity and abdominal cavity were then opened, and the circulation perfused with PBS via a cannula placed in the left ventricle, with fluid drained from a severed right atria. Following PBS perfusion, fresh 10% formalin was perfused in the same manner. The heart, kidneys and entire aorta to the iliac bifurcation was then carefully dissected from the animal, and photographed en masse.
Aortic dissections were defined by blood accumulation between the media and outer aortic wall. Mice that were found dead without any preceding signs of suffering were defined as sudden death.

[7] = test system: apoE-KO and GrB/apoE-DKO mice; assay: ApoE-KO model of angiotensin-II-induced AAA (Examples 8-14); type: in vivo, mouse; details: for survival to 28 days: chronic angII infusion 1000 ng/min/kg
Text: All animal protocols were approved by the University of British Columbia (UBC) Animal Care Committee. C57B1/6 mice, C57B1/6-ApoE−/− and C57B1/6-GrB−/− mice were obtained from Jackson Laboratories (Bar Harbor, Me.) ([…] et al. 1992. Proc Natl. Acad Sci 89: 4471-4475; HEUSEL et al 1994 Cell 76:977-987). The C57B1/6-ApoE−/− x GrB−/− double knockout (ApoE/GrB-DKO) mice were generated by crossing the C57B1/6-ApoE−/− and C57B1/6-GrB−/− mouse strains. […] The pups were weaned at 3 weeks of age and then maintained on a 12-hour day and night cycle with food and water provided ad libitum.
ALZET™ osmotic pumps (DURECT Corporation, Cupertino, Calif.) are miniature, implantable pumps commonly used for research in mice and rats. These infusion pumps continuously deliver drugs and other test agents at controlled rates from one day to four weeks without the need for external connections or frequent handling. ALZET™ pumps operate by osmotic displacement. An empty reservoir within the core of the pump is filled with the drug solution to be delivered. Due to the presence of a high concentration of salt in a chamber surrounding the reservoir, water enters the pump through its outer surface. This entry of water increases the volume in the salt chamber, causing compression of the flexible reservoir and delivery of the drug solution into the animal.
Mice were weighed immediately before calculating doses, and the mean weight of mice per group was used. Since mice on a regular diet gain 0.5 g of weight per week, the drug dose was calculated based on the projected mid weight of the experiment (so mice were slightly overdosed for the first two weeks and under-dosed for the final two weeks). The dose was calculated based on the pump fill volume, mean pumping rate, and the midpoint weight of the mice to achieve a value of 1.44 mg/kg/day, (equivalent to 1000 ng/min/kg). To ensure accurate filling, pumps were weighed before and after filling, and a value of 1 mg equal to 1 μL was used when assessing fill volume. […] All pumps and solutions were worked with under sterile conditions. […] All test tubes were placed in the incubator at 37° C. for 24 hours prior to implantation.
On day 1, mice were brought into the GEM micro-procedure room Animals were anesthetised with gaseous anaesthetic at a flow rate of 1.5 L per minute of oxygen with 2.5% of isoflurane delivered via a Baines system using a calibrated tabletop anaesthetic machine, administered from a rodent nose cone. Depth of anaesthesia was monitored by toe pinch response and breathing. Eyes were protected using ocular lubricant. The back of the mouse was shaved, and the legs were taped down. The back of the mouse was then sterilized with 70% ethanol, followed by iodine. The mouse was then moved to the surgical table, so that the dissecting microscope could be utilised.
Under sterile conditions, a lateral incision was made below the scapula, and the skin was blunt dissected from the subcutaneous layer, making a hole large enough to fit the minipump. The minipump was inserted with the flow regulator angled towards the head. Incisions were closed with 2-4 dissolving discontinuous sutures. Isoflurane was then shut off, allowing the mouse to breathe pure oxygen, and a dose of buprenorphine was administered for pain relief After 1 hour, when the mice had recovered from anaesthesia, they were moved back to the animal holding room. The mice were monitored daily for the remainder of the experiment.
Blood was collected by cardiac puncture following CO2 euthanization.

T1 sequence (P02751 32-2477): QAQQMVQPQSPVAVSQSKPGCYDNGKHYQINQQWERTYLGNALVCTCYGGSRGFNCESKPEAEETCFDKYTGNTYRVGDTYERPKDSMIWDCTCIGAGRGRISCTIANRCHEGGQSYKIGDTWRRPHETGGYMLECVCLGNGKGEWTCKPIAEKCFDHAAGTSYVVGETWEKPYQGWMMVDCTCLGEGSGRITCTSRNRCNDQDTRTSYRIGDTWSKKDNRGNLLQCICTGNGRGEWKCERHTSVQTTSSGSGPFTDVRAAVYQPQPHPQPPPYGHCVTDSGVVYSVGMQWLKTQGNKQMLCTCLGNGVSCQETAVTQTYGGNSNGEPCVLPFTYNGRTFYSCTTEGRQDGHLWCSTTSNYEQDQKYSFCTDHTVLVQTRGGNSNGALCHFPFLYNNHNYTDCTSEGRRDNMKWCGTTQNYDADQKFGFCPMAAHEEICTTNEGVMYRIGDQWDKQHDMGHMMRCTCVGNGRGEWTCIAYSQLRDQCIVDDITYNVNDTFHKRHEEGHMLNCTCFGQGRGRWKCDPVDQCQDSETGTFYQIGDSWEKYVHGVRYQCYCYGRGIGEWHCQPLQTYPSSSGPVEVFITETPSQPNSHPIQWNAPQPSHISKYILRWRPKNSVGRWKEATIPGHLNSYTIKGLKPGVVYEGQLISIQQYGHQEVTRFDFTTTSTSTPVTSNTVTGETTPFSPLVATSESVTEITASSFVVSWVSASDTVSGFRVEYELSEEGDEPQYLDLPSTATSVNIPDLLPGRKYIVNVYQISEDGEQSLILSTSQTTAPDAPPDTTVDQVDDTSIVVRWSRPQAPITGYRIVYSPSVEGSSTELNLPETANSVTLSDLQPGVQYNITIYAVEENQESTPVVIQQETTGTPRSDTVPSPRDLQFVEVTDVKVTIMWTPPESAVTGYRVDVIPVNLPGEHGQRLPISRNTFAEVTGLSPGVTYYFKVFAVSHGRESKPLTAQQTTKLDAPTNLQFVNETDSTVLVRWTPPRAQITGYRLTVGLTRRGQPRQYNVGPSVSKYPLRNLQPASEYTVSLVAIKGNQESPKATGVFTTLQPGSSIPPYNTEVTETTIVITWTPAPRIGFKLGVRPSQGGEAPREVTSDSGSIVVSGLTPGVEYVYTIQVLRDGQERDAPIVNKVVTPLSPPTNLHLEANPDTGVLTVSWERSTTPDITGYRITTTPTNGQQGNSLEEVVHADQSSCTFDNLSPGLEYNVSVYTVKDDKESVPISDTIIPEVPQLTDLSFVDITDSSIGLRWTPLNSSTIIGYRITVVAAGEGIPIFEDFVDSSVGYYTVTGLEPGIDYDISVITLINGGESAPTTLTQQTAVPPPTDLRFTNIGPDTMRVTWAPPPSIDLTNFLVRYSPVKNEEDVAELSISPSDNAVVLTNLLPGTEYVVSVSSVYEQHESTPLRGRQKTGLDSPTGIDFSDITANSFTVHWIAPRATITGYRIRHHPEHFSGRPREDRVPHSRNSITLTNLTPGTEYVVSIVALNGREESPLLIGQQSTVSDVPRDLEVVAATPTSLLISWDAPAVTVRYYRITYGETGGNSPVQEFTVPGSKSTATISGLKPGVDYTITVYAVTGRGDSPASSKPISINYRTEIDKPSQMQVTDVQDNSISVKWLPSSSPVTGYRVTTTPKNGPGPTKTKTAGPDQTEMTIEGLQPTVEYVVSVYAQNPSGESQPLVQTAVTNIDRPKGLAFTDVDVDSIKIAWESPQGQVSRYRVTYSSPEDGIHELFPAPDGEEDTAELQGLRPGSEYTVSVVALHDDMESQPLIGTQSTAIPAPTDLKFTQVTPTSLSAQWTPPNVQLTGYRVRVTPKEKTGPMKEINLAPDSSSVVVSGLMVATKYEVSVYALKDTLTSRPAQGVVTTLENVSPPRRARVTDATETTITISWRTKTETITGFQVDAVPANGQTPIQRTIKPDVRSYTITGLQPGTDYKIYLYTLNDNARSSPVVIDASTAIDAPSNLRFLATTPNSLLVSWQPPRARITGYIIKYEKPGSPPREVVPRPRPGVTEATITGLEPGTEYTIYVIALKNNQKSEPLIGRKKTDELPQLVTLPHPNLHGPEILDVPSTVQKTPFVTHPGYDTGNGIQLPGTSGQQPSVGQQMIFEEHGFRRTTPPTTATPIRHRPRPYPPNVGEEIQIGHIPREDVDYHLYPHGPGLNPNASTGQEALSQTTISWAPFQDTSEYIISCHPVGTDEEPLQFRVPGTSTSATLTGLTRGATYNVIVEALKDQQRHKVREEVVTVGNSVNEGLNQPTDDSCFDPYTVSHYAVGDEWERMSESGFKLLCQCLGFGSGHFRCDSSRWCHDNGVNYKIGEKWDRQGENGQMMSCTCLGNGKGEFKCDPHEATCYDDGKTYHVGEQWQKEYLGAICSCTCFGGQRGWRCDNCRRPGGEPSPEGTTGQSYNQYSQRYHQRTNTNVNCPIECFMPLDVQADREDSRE

Substance: granzyme B: serine protease; the patent's target enzyme, tested for binding and cleavage of extracellular matrix proteins
- radioactivity of the cleaved, soluble elastin fragments ([1]; skin 3H-elastin 0.15 mg, granzyme B 0.75 μg added 5 times, room temperature, 7 days): 4.8 times higher than background
- radioactivity of the cleaved, soluble elastin fragments ([2]; aortic 3H-elastin 0.15 mg, granzyme B 0.75 μg added 5 times, room temperature, 7 days): 2.7 times higher than background
- unbound granzyme B band in supernatant (Western blot) versus sample without elastin [3]: dramatically less pronounced
- unbound granzyme B band in supernatant (Western blot) [4]: No band appeared
- fibronectin in SMC lysates (Western blot) (fibronectin): reduction in the total amount of fibronectin
- cleavage of collagen IV (collagen IV): no cleavage
- cleavage of vitronectin (vitronectin): no cleavage
- fibrillin-1 cleavage (Western blot) (fibrillin-1): cleaves fibrillin-1
- cleavage of extracellular proteins (Western blot for biotin) [5]: induced a cleavage of a number of extracellular proteins

Substance: angII: angiotensin II from Sigma, infused by osmotic minipump to induce aneurysm and dissection in mice (DRVYIHPF; Angiotensin-2; UniProt P01019 25-32, looked up)
- sudden death before the 28-day time point ([6]; apoE-KO mice, 2000 ng/kg/min infusion, four of eight): 50%
- mice that developed aortic dissections or succumbed to sudden death ([6]; apoE-KO mice, 2000 ng/kg/min, 28 day infusion, seven of eight): 87.5%
- aortic dissections ([6]; wildtype and GrB/apoE-DKO mice, 2000 ng/kg/min, 28 day infusion): none developed aortic dissections
- sudden death ([6]; wildtype mice, 2000 ng/kg/min, 28 day infusion): zero of six
- medial thickness of thoracic and abdominal aortas versus saline ([7]; 28 days, significant only for apoE-KO thoracic samples (p<0.05)): trend for medial thickness to increase
- survival to 28 days ([7]; GrB/apoE-DKO mice (n=15)): 86.67%
- Weight change ([7]; GrB/apoE-DKO mice surviving to 28 days): -0.3 g
- n at 28 days ([7]; GrB/apoE-DKO mice, n at 0 days 15): 13
- mice with small abdominal aortic aneurysm (AAA) ([7]; GrB/apoE-DKO surviving mice, day 28): 30%
- survival to 28 days ([7]; apoE-KO mice (n=16)): 56.25% and 53%
- Weight change ([7]; apoE-KO mice surviving to 28 days): 1.0 g
- abdominal aortic lumen area versus saline ([7]; apoE-KO mice, 28 days, one-way ANOVA/Dunn's, p<0.05): statistically significant increase
- n at 28 days ([7]; apoE-KO mice, n at 0 days 16): 9
- gross pathological outcome ([7]; apoE-KO surviving mice, day 28): developed aortic dissections
- percent aortic root lumen covered by plaque ([7]; either genotype, angII versus saline, 28 days, p>0.05): No significant difference

Substance: elastase
- radioactivity increase over background ([1]; skin elastin, 25 μg elastase, 2 hours, positive control): 14.9 fold
- radioactivity increase over background ([2]; aortic elastin, 25 μg elastase, 2 hours, positive control): 7.7 fold
